Experimental data as given in paper PMC11257444 (bioRxiv, 2024).

Columns and labels:
Test in all cases: SPR
[1] = target: HIR-1 ectodomain (purified) (C. elegans) (UniProt O76385)
[2] = target: ZIG-4 (purified, SPR) (C. elegans) (UniProt G5ECB1)
[3] = target: ZIG-5 (purified, SPR) (C. elegans) (UniProt Q9XXD7)
ZIG-5 (purified, SPR) = target: T1, ZIG-5 (purified, SPR) (C. elegans, UniProt Q9XXD7 26-260)
T1 sequence: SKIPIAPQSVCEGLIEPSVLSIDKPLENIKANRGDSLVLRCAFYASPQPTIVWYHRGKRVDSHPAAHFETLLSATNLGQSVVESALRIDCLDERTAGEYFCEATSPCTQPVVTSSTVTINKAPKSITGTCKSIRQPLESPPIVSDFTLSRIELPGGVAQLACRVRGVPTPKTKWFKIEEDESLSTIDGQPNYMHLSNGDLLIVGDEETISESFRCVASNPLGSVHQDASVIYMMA

ZIG-4 (purified, SPR) = target: T2, ZIG-4 (purified, SPR) (C. elegans, UniProt G5ECB1 17-253)
T2 sequence: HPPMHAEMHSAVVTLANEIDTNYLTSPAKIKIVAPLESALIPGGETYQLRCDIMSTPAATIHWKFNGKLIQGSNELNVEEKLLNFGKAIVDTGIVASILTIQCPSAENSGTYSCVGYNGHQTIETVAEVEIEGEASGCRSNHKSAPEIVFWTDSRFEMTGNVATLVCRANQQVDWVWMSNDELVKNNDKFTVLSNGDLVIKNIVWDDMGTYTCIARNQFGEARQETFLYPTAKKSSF

[4] = target: NRX-1 LNS6 domain (purified) (C. elegans)

Molecule: B0222.11 (purified) (from UniProt Q4PIU5) (ligand)
- Kd [1]: 0.5 nM

Molecule: INS-1 (purified, SPR) (ligand)
- Kd [2]: > 1000 nM
- Kd [3]: 3 nM

B1: INS-6 (purified, SPR) (ligand)
chain: VPAPGETRACGRKLISLVMAVCGDLCNPQEGKDIATECCGNQCSDDYIRSACCP
- Kd (ZIG-5 (purified, SPR)): > 1000 nM
- Kd (ZIG-4 (purified, SPR)): 0.056 nM

B2: NLG-1 ectodomain (purified) (receptor)
chain: YDVRSVTTSWGMVRGEVVSPEGDDLPPVAQYLGIPYGVAPTGQYRFNMAISAAKWTHMPKDARKVSPVCIQTDMPELSETKAFKHTSAQRFDFNHRLLPHLKKQSEDCLYMNIYVPERLEISRDNYLPVMVIVHGEEYGWGTGNAFNGTTLAAYGHIIVVTLNYRLGVFGFLGRCESSSCSGNSGISDLVSALTMLNVILPSFGGDSKSVTLAGWGSGASLVSLLMASPLTQPGRRLFRRAILLDGSALSPWAISQNPQQYFMQLAEELACAPKNRTSSFNDNVDTIVRCMQVHSSENITKAVLKIDVPTFLSGFAPIVDGQLIPNKPQVSFSTQYGSLFREIDLLVGISSNPSHHMISNEDLKVGISKEKRMRIFRSLVRNLYDFHREEILASIINEYTDWENPRDHPKSIRNGVLNALSDVLYTAPLIETLRSHSADEVRKEANTFMFAFAHETRSWSQEQPNSGIRGSLSGDIVPYIFGYPLAQGDSEERLYSGFNTDDKGISKVMMHYVSNFVKSGDPSKPNPMSKNFPMGDVFHSTAWPQFDQPNREAYLEITDRPRVKNYYRNAQVGFWNNFIPQLHKNGKETEPVGEEHHLLSDHFRKDSYFGKTRHFSSYANLPFPPPPMPPSPPPELTTKPKPSESPTTLQTTTESEKAAAGSFTGKAL
- Kd [4]: 48000 nM
